In publication PMC10786891, “Massively parallel profiling of RNA-targeting CRISPR-Cas13d”:

Target: T1, EsCas13d, nuclease-dead (Eubacterium siraeum, UniProt B0MS50, R295A;H300A;R849A;H854A)
T1 sequence: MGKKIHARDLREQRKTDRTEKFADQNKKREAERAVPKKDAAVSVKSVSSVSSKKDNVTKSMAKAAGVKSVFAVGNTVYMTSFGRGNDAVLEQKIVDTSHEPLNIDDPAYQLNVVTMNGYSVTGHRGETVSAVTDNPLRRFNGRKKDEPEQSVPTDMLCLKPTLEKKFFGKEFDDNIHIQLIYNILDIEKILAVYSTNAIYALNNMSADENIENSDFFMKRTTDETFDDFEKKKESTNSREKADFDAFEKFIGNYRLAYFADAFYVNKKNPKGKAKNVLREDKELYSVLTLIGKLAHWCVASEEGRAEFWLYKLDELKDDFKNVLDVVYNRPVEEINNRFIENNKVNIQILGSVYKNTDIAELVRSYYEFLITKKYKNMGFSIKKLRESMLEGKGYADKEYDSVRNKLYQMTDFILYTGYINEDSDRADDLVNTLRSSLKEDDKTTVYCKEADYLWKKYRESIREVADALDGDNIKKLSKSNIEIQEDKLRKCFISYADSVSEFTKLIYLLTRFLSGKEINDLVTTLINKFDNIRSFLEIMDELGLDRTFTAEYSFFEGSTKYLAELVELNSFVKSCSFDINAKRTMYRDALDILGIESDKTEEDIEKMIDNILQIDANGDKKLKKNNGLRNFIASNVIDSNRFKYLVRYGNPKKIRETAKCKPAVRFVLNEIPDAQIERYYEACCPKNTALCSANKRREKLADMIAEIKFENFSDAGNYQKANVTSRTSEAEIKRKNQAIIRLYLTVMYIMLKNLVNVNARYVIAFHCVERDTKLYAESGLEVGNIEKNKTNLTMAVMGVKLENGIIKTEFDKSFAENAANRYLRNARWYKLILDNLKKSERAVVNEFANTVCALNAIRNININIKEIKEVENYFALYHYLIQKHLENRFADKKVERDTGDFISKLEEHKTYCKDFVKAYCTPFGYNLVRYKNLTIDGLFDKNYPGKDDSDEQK
Assay: crRNA (strand 1, pre-loaded); Mg2+; 40 mM Tris-HCl pH 7.5, 150 mM NaCl, 6 mM MgCl2, 1 mM DTT, 0.1% Tween-20, 0.2 mg/ml BSA; 25 C; 10 min per concentration, then washed
Details: tags: His6-TwinStrep-SUMO cleaved; N-terminal SNAP kept (SNAP-Surface 488); label: 3' end held by stalled T7 RNA polymerase

B1: target 2 MT 5'PFS GGG 3'PFS CGG (mixed)
RNA 1: CACCCGUGCAAAAUUGCAGGGGUCUAAAACCUUCUCCAAAUUGUUUCAUCCU
RNA 2: GGGAAUGGAUCCACAUCUACGAAUUCGGGAGGAUGAAACAAUUUGGAGAAGCGGAGAUCGGAAGAGCACACGU
B1 was tested, and the Kd was 8.5 ± 0.5 nM.

B2: target 2 MT 5'PFS UUA 3'PFS UUA (mixed)
RNA 1: CACCCGUGCAAAAUUGCAGGGGUCUAAAACCUUCUCCAAAUUGUUUCAUCCU
RNA 2: GGGAAUGGAUCCACAUCUACGAAUUCUUAAGGAUGAAACAAUUUGGAGAAGUUAAGAUCGGAAGAGCACACGU
For B2, the Kd was 49 ± 21 nM.

B3: target 2 MT 5'PFS ACG 3'PFS AUU (mixed)
RNA 1: CACCCGUGCAAAAUUGCAGGGGUCUAAAACCUUCUCCAAAUUGUUUCAUCCU
RNA 2: GGGAAUGGAUCCACAUCUACGAAUUCACGAGGAUGAAACAAUUUGGAGAAGAUUAGAUCGGAAGAGCACACGU
Binder B3 has a Kd of 5.6 ± 1 nM.

B4: target 2 MT 5'PFS GCU 3'PFS UAA (mixed)
RNA 1: CACCCGUGCAAAAUUGCAGGGGUCUAAAACCUUCUCCAAAUUGUUUCAUCCU
RNA 2: GGGAAUGGAUCCACAUCUACGAAUUCGCUAGGAUGAAACAAUUUGGAGAAGUAAAGAUCGGAAGAGCACACGU
B4 showed a Kd of 7.8 ± 1.8 nM.

B5: target 2 MT 5'PFS GGG 3'PFS AGC (mixed)
RNA 1: CACCCGUGCAAAAUUGCAGGGGUCUAAAACCUUCUCCAAAUUGUUUCAUCCU
RNA 2: GGGAAUGGAUCCACAUCUACGAAUUCGGGAGGAUGAAACAAUUUGGAGAAGAGCAGAUCGGAAGAGCACACGU
In the case of B5, the Kd is reported as 6.5 ± 0.4 nM.

B6: target 2 MT 5'PFS GCA 3'PFS CUA (mixed)
RNA 1: CACCCGUGCAAAAUUGCAGGGGUCUAAAACCUUCUCCAAAUUGUUUCAUCCU
RNA 2: GGGAAUGGAUCCACAUCUACGAAUUCGCAAGGAUGAAACAAUUUGGAGAAGCUAAGAUCGGAAGAGCACACGU
B6 was tested, and the Kd was 10.9 ± 2.5 nM.

B7: target 2 MT 5'PFS GGG 3'PFS AGU (mixed)
RNA 1: CACCCGUGCAAAAUUGCAGGGGUCUAAAACCUUCUCCAAAUUGUUUCAUCCU
RNA 2: GGGAAUGGAUCCACAUCUACGAAUUCGGGAGGAUGAAACAAUUUGGAGAAGAGUAGAUCGGAAGAGCACACGU
With B7 the Kd was 6.2 ± 0.5 nM.

B8: target 2 MT 5'PFS GGG 3'PFS AGG (mixed)
RNA 1: CACCCGUGCAAAAUUGCAGGGGUCUAAAACCUUCUCCAAAUUGUUUCAUCCU
RNA 2: GGGAAUGGAUCCACAUCUACGAAUUCGGGAGGAUGAAACAAUUUGGAGAAGAGGAGAUCGGAAGAGCACACGU
For B8, the Kd was 7.5 ± 0.5 nM.

B9: target 2 MT 5'PFS GCU 3'PFS UUC (mixed)
RNA 1: CACCCGUGCAAAAUUGCAGGGGUCUAAAACCUUCUCCAAAUUGUUUCAUCCU
RNA 2: GGGAAUGGAUCCACAUCUACGAAUUCGCUAGGAUGAAACAAUUUGGAGAAGUUCAGAUCGGAAGAGCACACGU
Work on B9 yielded a Kd of about 90 nM.

B10: target 2 MT 5'PFS GCA 3'PFS CUU (mixed)
RNA 1: CACCCGUGCAAAAUUGCAGGGGUCUAAAACCUUCUCCAAAUUGUUUCAUCCU
RNA 2: GGGAAUGGAUCCACAUCUACGAAUUCGCAAGGAUGAAACAAUUUGGAGAAGCUUAGAUCGGAAGAGCACACGU
B10 was tested, and the Kd was 16 ± 4 nM.

B11: target 2 MT 5'PFS GAC 3'PFS CCG (mixed)
RNA 1: CACCCGUGCAAAAUUGCAGGGGUCUAAAACCUUCUCCAAAUUGUUUCAUCCU
RNA 2: GGGAAUGGAUCCACAUCUACGAAUUCGACAGGAUGAAACAAUUUGGAGAAGCCGAGAUCGGAAGAGCACACGU
For B11, the Kd was 13 ± 1.5 nM.

B12: target 2 MT 5'PFS GUC 3'PFS CUC (mixed)
RNA 1: CACCCGUGCAAAAUUGCAGGGGUCUAAAACCUUCUCCAAAUUGUUUCAUCCU
RNA 2: GGGAAUGGAUCCACAUCUACGAAUUCGUCAGGAUGAAACAAUUUGGAGAAGCUCAGAUCGGAAGAGCACACGU
Work on B12 yielded a Kd of 15.5 ± 2.4 nM.

B13: target 2 MT 5'PFS GCU 3'PFS UAC (mixed)
RNA 1: CACCCGUGCAAAAUUGCAGGGGUCUAAAACCUUCUCCAAAUUGUUUCAUCCU
RNA 2: GGGAAUGGAUCCACAUCUACGAAUUCGCUAGGAUGAAACAAUUUGGAGAAGUACAGAUCGGAAGAGCACACGU
Binder B13 has a Kd of 13.2 ± 2.4 nM.

B14: target 2 MT 5'PFS GUC 3'PFS CUU (mixed)
RNA 1: CACCCGUGCAAAAUUGCAGGGGUCUAAAACCUUCUCCAAAUUGUUUCAUCCU
RNA 2: GGGAAUGGAUCCACAUCUACGAAUUCGUCAGGAUGAAACAAUUUGGAGAAGCUUAGAUCGGAAGAGCACACGU
Binder B14 has a Kd of 13.9 ± 1.2 nM.

B15: target 2 MT 5'PFS GCA 3'PFS CUG (mixed)
RNA 1: CACCCGUGCAAAAUUGCAGGGGUCUAAAACCUUCUCCAAAUUGUUUCAUCCU
RNA 2: GGGAAUGGAUCCACAUCUACGAAUUCGCAAGGAUGAAACAAUUUGGAGAAGCUGAGAUCGGAAGAGCACACGU
B15 was tested, and the Kd was 12.5 ± 2 nM.

B16: target 2 MT 5'PFS GCA 3'PFS CUC (mixed)
RNA 1: CACCCGUGCAAAAUUGCAGGGGUCUAAAACCUUCUCCAAAUUGUUUCAUCCU
RNA 2: GGGAAUGGAUCCACAUCUACGAAUUCGCAAGGAUGAAACAAUUUGGAGAAGCUCAGAUCGGAAGAGCACACGU
Binder B16 has a Kd of 23 ± 7 nM.

B17: target 2 MT 5'PFS UUA 3'PFS UUG (mixed)
RNA 1: CACCCGUGCAAAAUUGCAGGGGUCUAAAACCUUCUCCAAAUUGUUUCAUCCU
RNA 2: GGGAAUGGAUCCACAUCUACGAAUUCUUAAGGAUGAAACAAUUUGGAGAAGUUGAGAUCGGAAGAGCACACGU
Work on B17 yielded a Kd of 19.3 ± 2.8 nM.

B18: target 2 MT 5'PFS GAU 3'PFS AUU (mixed)
RNA 1: CACCCGUGCAAAAUUGCAGGGGUCUAAAACCUUCUCCAAAUUGUUUCAUCCU
RNA 2: GGGAAUGGAUCCACAUCUACGAAUUCGAUAGGAUGAAACAAUUUGGAGAAGAUUAGAUCGGAAGAGCACACGU
Binder B18 has a Kd of 8.3 ± 0.8 nM.

B19: target 2 MT 5'PFS GUC 3'PFS CUA (mixed)
RNA 1: CACCCGUGCAAAAUUGCAGGGGUCUAAAACCUUCUCCAAAUUGUUUCAUCCU
RNA 2: GGGAAUGGAUCCACAUCUACGAAUUCGUCAGGAUGAAACAAUUUGGAGAAGCUAAGAUCGGAAGAGCACACGU
In the case of B19, the Kd is reported as 11.8 ± 1.8 nM.

B20: target 2 MT 5'PFS CGC 3'PFS CUA (mixed)
RNA 1: CACCCGUGCAAAAUUGCAGGGGUCUAAAACCUUCUCCAAAUUGUUUCAUCCU
RNA 2: GGGAAUGGAUCCACAUCUACGAAUUCCGCAGGAUGAAACAAUUUGGAGAAGCUAAGAUCGGAAGAGCACACGU
B20 showed a Kd of 7.4 ± 1.8 nM.

B21: target 2 MT 5'PFS ACG 3'PFS AUA (mixed)
RNA 1: CACCCGUGCAAAAUUGCAGGGGUCUAAAACCUUCUCCAAAUUGUUUCAUCCU
RNA 2: GGGAAUGGAUCCACAUCUACGAAUUCACGAGGAUGAAACAAUUUGGAGAAGAUAAGAUCGGAAGAGCACACGU
In the case of B21, the Kd is reported as 11 ± 4 nM.

B22: target 2 MT 5'PFS GGG 3'PFS AGA (mixed)
RNA 1: CACCCGUGCAAAAUUGCAGGGGUCUAAAACCUUCUCCAAAUUGUUUCAUCCU
RNA 2: GGGAAUGGAUCCACAUCUACGAAUUCGGGAGGAUGAAACAAUUUGGAGAAGAGAAGAUCGGAAGAGCACACGU
With B22 the Kd was 5.5 ± 0.5 nM.

B23: target 1 insG 3' of 19,insC 3' of 19 (mixed)
RNA 1: CACCCGUGCAAAAAUGCAGGGGUCUAAAACUGAGCGGAUAACCUCUCUAUGG
RNA 2: GGGAAUGGAUCCACAUCUACGAAUUCGUACCAUGCAGAGAGGUUAUCCGCUCACCGAGAUCGGAAGAGCACACGU
Binder B23 has a Kd of 82 ± 11 nM.

B24: target 1 insC 3' of 8,insG 3' of 3 (mixed)
RNA 1: CACCCGUGCAAAAAUGCAGGGGUCUAAAACUGAGCGGAUAACCUCUCUAUGG
RNA 2: GGGAAUGGAUCCACAUCUACGAAUUCGUACCAUAGAGAGGUUAUCCCGCUGCACCGAGAUCGGAAGAGCACACGU
B24 gave a Kd of 9.8 ± 0.4 nM.
